From PMC6279779

Tests used:
[1] = target: soluble domain of Arabidopsis thaliana cytochrome c1 (Arabidopsis thaliana)
[2] = target: soluble domain of Arabidopsis thaliana cytochrome c1 (Arabidopsis thaliana); remark: listed apart in the source

distance decay factor (β) of the pCc1–hCc current after addition of wild-type hCc (12.5 μM, without C-terminal cysteine) to the medium, as an inhibition experiment [1]: 3 nm^−1 | average distance decay factor (β) of the pCc1–hCc current against the electrochemical gate potential at 200 mV constant bias; minimum at −0.25 V EC gate potential [2]: 0.5 nm^−1
Substance: Homo sapiens E104C cytochrome c mutant (from UniProt P99999 1-105) (natural protein)
